# Measurements from patent US20160008485A1 (Pfizer, published 2016).
# Values joined by “and” are separate entries in the source; they are usually repeats but may differ in a detail not shown here. Equal values may be shown once.
# T1: human 5T4 antigen on cells (MDAMB435/5T4 transfectants; MDA-MB-468) (human, UniProt Q13641 32-420)
# T1 sequence (looked up): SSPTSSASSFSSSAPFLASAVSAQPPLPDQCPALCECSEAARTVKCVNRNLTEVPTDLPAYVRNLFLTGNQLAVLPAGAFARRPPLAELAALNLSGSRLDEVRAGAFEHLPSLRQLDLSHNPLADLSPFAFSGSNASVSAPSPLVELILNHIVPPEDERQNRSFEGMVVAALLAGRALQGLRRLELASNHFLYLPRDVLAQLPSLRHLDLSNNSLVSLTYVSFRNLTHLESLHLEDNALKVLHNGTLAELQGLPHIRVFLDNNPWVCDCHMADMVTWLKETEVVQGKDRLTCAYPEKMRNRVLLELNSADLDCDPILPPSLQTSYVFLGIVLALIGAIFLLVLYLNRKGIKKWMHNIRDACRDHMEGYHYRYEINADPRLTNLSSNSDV
# T2: human truncated recombinant 5T4 protein (5T4-tm-_myc_his) (human, UniProt Q13641 32-355)
# T2 construct: extracellular domain; Coated on the ELISA plate; construct cited to Boghaert et al. 2008; also called 5T4 antigen; not shown: Myc and histidine tags
# T2 sequence (looked up): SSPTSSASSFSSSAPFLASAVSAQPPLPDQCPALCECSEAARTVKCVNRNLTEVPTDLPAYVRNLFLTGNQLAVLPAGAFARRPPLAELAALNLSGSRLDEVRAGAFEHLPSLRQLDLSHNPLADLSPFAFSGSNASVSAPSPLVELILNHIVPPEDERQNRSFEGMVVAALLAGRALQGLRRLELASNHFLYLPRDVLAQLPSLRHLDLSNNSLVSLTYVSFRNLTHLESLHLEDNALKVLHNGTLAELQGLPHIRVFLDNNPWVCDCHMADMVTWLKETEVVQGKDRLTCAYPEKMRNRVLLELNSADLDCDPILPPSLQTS
# Target: T1, human 5T4 antigen on cells …
# Experiment: cell-based or functional assay
Binder,"IC-50, growth inhibition (MTS), MDAMB435/5T4 cells (5T4 expression 3+) [ng ADC/ml]","IC50, growth inhibition (MTS), MDA-MB-468 cells (5T4 expression 2+)"
"5T4-L398C-vcMMAD (antibody, human IgG1, kappa, vcMMAD (mcValCitPABC-MMAD) on engineered Cys 398 (EU)) heavy: not shown light: DIQMTQSPSSLSASVGDRVTITCKASQSVSNDVAWYQQKPGKAPKLLIYFATNRYTGVPSRFSGSGYGTDFTLTISSLQPEDFATYYCQQDYSSPWTFGQGTKVEIKRTVAAPSVFIFPPSDEQLKSGTASVVCLLNNFYPREAKVQWKVDNALQSGNSQESVTEQDSKDSTYSLSSTLTLSKADYEKHKVYACEVTHQGLSSPVTKSFNRGEC",14,–
"5T4-V422C-vcMMAD (antibody, human IgG1, kappa, vcMMAD (mcValCitPABC-MMAD) on engineered Cys 422 (EU)) heavy: not shown light: DIQMTQSPSSLSASVGDRVTITCKASQSVSNDVAWYQQKPGKAPKLLIYFATNRYTGVPSRFSGSGYGTDFTLTISSLQPEDFATYYCQQDYSSPWTFGQGTKVEIKRTVAAPSVFIFPPSDEQLKSGTASVVCLLNNFYPREAKVQWKVDNALQSGNSQESVTEQDSKDSTYSLSSTLTLSKADYEKHKVYACEVTHQGLSSPVTKSFNRGEC",15,–
"5T4-E380C+L443C-mcMMAD (antibody, mcMMAD on engineered Cys 380 and Cys 443 (EU)) heavy: not shown light: DIQMTQSPSSLSASVGDRVTITCKASQSVSNDVAWYQQKPGKAPKLLIYFATNRYTGVPSRFSGSGYGTDFTLTISSLQPEDFATYYCQQDYSSPWTFGQGTKVEIKRTVAAPSVFIFPPSDEQLKSGTASVVCLLNNFYPREAKVQWKVDNALQSGNSQESVTEQDSKDSTYSLSSTLTLSKADYEKHKVYACEVTHQGLSSPVTKSFNRGEC",79,3.3 µg/mL
"5T4-E380C+L398C-mcMMAD (antibody, human IgG1, kappa, mcMMAD on engineered Cys 380 and Cys 398 (EU)) heavy: not shown light: DIQMTQSPSSLSASVGDRVTITCKASQSVSNDVAWYQQKPGKAPKLLIYFATNRYTGVPSRFSGSGYGTDFTLTISSLQPEDFATYYCQQDYSSPWTFGQGTKVEIKRTVAAPSVFIFPPSDEQLKSGTASVVCLLNNFYPREAKVQWKVDNALQSGNSQESVTEQDSKDSTYSLSSTLTLSKADYEKHKVYACEVTHQGLSSPVTKSFNRGEC",79,5.1 µg/mL
"5T4-L443C-vcMMAD (antibody, vcMMAD (mcValCitPABC-MMAD) on engineered Cys 443 (EU)) heavy: not shown light: DIQMTQSPSSLSASVGDRVTITCKASQSVSNDVAWYQQKPGKAPKLLIYFATNRYTGVPSRFSGSGYGTDFTLTISSLQPEDFATYYCQQDYSSPWTFGQGTKVEIKRTVAAPSVFIFPPSDEQLKSGTASVVCLLNNFYPREAKVQWKVDNALQSGNSQESVTEQDSKDSTYSLSSTLTLSKADYEKHKVYACEVTHQGLSSPVTKSFNRGEC",40,1.4 µg/mL
"5T4-E380C-vcMMAD (antibody, human IgG1, kappa, vcMMAD (mcValCitPABC-MMAD) on engineered Cys 380 (EU)) heavy: not shown light: DIQMTQSPSSLSASVGDRVTITCKASQSVSNDVAWYQQKPGKAPKLLIYFATNRYTGVPSRFSGSGYGTDFTLTISSLQPEDFATYYCQQDYSSPWTFGQGTKVEIKRTVAAPSVFIFPPSDEQLKSGTASVVCLLNNFYPREAKVQWKVDNALQSGNSQESVTEQDSKDSTYSLSSTLTLSKADYEKHKVYACEVTHQGLSSPVTKSFNRGEC",15,–
"5T4-L398C+V422C-mcMMAD (antibody, human IgG1, kappa, mcMMAD on engineered Cys 398 and Cys 422 (EU)) heavy: not shown light: DIQMTQSPSSLSASVGDRVTITCKASQSVSNDVAWYQQKPGKAPKLLIYFATNRYTGVPSRFSGSGYGTDFTLTISSLQPEDFATYYCQQDYSSPWTFGQGTKVEIKRTVAAPSVFIFPPSDEQLKSGTASVVCLLNNFYPREAKVQWKVDNALQSGNSQESVTEQDSKDSTYSLSSTLTLSKADYEKHKVYACEVTHQGLSSPVTKSFNRGEC",100,17 µg/mL
"5T4-E380C+V422C-mcMMAD (antibody, human IgG1, kappa, mcMMAD on engineered Cys 380 and Cys 422 (EU)) heavy: not shown light: DIQMTQSPSSLSASVGDRVTITCKASQSVSNDVAWYQQKPGKAPKLLIYFATNRYTGVPSRFSGSGYGTDFTLTISSLQPEDFATYYCQQDYSSPWTFGQGTKVEIKRTVAAPSVFIFPPSDEQLKSGTASVVCLLNNFYPREAKVQWKVDNALQSGNSQESVTEQDSKDSTYSLSSTLTLSKADYEKHKVYACEVTHQGLSSPVTKSFNRGEC",100,5 µg/mL
"5T4-K392C+L443C-mcMMAD (antibody, mcMMAD on engineered Cys 392 and Cys 443 (EU)) heavy: not shown light: DIQMTQSPSSLSASVGDRVTITCKASQSVSNDVAWYQQKPGKAPKLLIYFATNRYTGVPSRFSGSGYGTDFTLTISSLQPEDFATYYCQQDYSSPWTFGQGTKVEIKRTVAAPSVFIFPPSDEQLKSGTASVVCLLNNFYPREAKVQWKVDNALQSGNSQESVTEQDSKDSTYSLSSTLTLSKADYEKHKVYACEVTHQGLSSPVTKSFNRGEC",98,30 µg/mL
"5T4-K392C-mcMMAD (antibody, human IgG1, kappa, mcMMAD on engineered Cys 392 (EU)) heavy: not shown light: DIQMTQSPSSLSASVGDRVTITCKASQSVSNDVAWYQQKPGKAPKLLIYFATNRYTGVPSRFSGSGYGTDFTLTISSLQPEDFATYYCQQDYSSPWTFGQGTKVEIKRTVAAPSVFIFPPSDEQLKSGTASVVCLLNNFYPREAKVQWKVDNALQSGNSQESVTEQDSKDSTYSLSSTLTLSKADYEKHKVYACEVTHQGLSSPVTKSFNRGEC",160,32 µg/mL
"5T4-L398C+L443C-mcMMAD (antibody, mcMMAD on engineered Cys 398 and Cys 443 (EU)) heavy: not shown light: DIQMTQSPSSLSASVGDRVTITCKASQSVSNDVAWYQQKPGKAPKLLIYFATNRYTGVPSRFSGSGYGTDFTLTISSLQPEDFATYYCQQDYSSPWTFGQGTKVEIKRTVAAPSVFIFPPSDEQLKSGTASVVCLLNNFYPREAKVQWKVDNALQSGNSQESVTEQDSKDSTYSLSSTLTLSKADYEKHKVYACEVTHQGLSSPVTKSFNRGEC",–,5.5 µg/mL and 7.1 µg/mL

# Target: T3, human FcRn (human, UniProt P55899 24-297; P61769 21-119, limits assumed, biotinylated through an engineered Avi-tag)
# T3 construct: Immobilised on a streptavidin chip; not shown: engineered Avi-tag
# Experiment: BIAcore SPR, steady state, pH 6.0, biotinylated human FcRn on SA chip
# T3 sequence (P55899 24-297 limits assumed, chain 1 of 2): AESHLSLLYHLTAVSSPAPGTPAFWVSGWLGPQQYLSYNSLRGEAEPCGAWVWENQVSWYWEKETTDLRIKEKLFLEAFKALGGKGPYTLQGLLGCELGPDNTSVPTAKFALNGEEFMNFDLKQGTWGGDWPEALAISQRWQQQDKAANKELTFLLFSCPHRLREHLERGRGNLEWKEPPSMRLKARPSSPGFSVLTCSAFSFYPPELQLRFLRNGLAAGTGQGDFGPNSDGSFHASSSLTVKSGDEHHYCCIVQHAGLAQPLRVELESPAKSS
# T3 sequence (P61769 21-119 limits assumed, chain 2 of 2): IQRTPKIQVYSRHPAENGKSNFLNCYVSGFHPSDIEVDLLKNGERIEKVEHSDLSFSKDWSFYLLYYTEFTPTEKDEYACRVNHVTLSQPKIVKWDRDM
row,Binder,Kd [nM]
1,"5T4-E380C (antibody, human IgG1, kappa) heavy: not shown light: DIQMTQSPSSLSASVGDRVTITCKASQSVSNDVAWYQQKPGKAPKLLIYFATNRYTGVPSRFSGSGYGTDFTLTISSLQPEDFATYYCQQDYSSPWTFGQGTKVEIKRTVAAPSVFIFPPSDEQLKSGTASVVCLLNNFYPREAKVQWKVDNALQSGNSQESVTEQDSKDSTYSLSSTLTLSKADYEKHKVYACEVTHQGLSSPVTKSFNRGEC",390
2,"5T4-S440C (antibody, IgG1) heavy: not shown light: DIQMTQSPSSLSASVGDRVTITCKASQSVSNDVAWYQQKPGKAPKLLIYFATNRYTGVPSRFSGSGYGTDFTLTISSLQPEDFATYYCQQDYSSPWTFGQGTKVEIKRTVAAPSVFIFPPSDEQLKSGTASVVCLLNNFYPREAKVQWKVDNALQSGNSQESVTEQDSKDSTYSLSSTLTLSKADYEKHKVYACEVTHQGLSSPVTKSFNRGEC",608
3,"5T4-V422C (antibody, human IgG1, kappa) heavy: not shown light: DIQMTQSPSSLSASVGDRVTITCKASQSVSNDVAWYQQKPGKAPKLLIYFATNRYTGVPSRFSGSGYGTDFTLTISSLQPEDFATYYCQQDYSSPWTFGQGTKVEIKRTVAAPSVFIFPPSDEQLKSGTASVVCLLNNFYPREAKVQWKVDNALQSGNSQESVTEQDSKDSTYSLSSTLTLSKADYEKHKVYACEVTHQGLSSPVTKSFNRGEC",443
4,"5T4-L398C (antibody, human IgG1, kappa) heavy: not shown light: DIQMTQSPSSLSASVGDRVTITCKASQSVSNDVAWYQQKPGKAPKLLIYFATNRYTGVPSRFSGSGYGTDFTLTISSLQPEDFATYYCQQDYSSPWTFGQGTKVEIKRTVAAPSVFIFPPSDEQLKSGTASVVCLLNNFYPREAKVQWKVDNALQSGNSQESVTEQDSKDSTYSLSSTLTLSKADYEKHKVYACEVTHQGLSSPVTKSFNRGEC",513
5,"5T4-K392C (antibody, human IgG1, kappa) heavy: not shown light: DIQMTQSPSSLSASVGDRVTITCKASQSVSNDVAWYQQKPGKAPKLLIYFATNRYTGVPSRFSGSGYGTDFTLTISSLQPEDFATYYCQQDYSSPWTFGQGTKVEIKRTVAAPSVFIFPPSDEQLKSGTASVVCLLNNFYPREAKVQWKVDNALQSGNSQESVTEQDSKDSTYSLSSTLTLSKADYEKHKVYACEVTHQGLSSPVTKSFNRGEC",384

# Target: T2, human truncated recombinant 5T4 protein …
# Experiment: competition ELISA on plate-coated 5T4-tm-_myc_his; competitor: biotinylated wild type anti-5T4 antibody at 1.3 nM, detected with streptavidin-HRP, OD450
# Description: That is, both the variants and the control wild type antibodies comprised human IgG1 Fc regions. […] The contents of the plate were discarded and then the plate was blocked with PBS-CMF pH7.2+0.02% casein for 3 hours at room temperature.
# The wells were washed four times with PBS-CMF pH7.2+0.03% tween-20. Streptavidin-HRP (catalog #7100-05, Southern Biotech, (Birmingham, Ala.) diluted 1:10,000 was added and incubated for 30 minutes at room temperature. The wells were washed four times with PBS-CMF pH 7.2+0.03% tween-20 and TMB (BioFx) was added.
Binder,IC50 (read off the curve) [nM],binding result
"5T4-S440C (antibody, IgG1) heavy: not shown light: DIQMTQSPSSLSASVGDRVTITCKASQSVSNDVAWYQQKPGKAPKLLIYFATNRYTGVPSRFSGSGYGTDFTLTISSLQPEDFATYYCQQDYSSPWTFGQGTKVEIKRTVAAPSVFIFPPSDEQLKSGTASVVCLLNNFYPREAKVQWKVDNALQSGNSQESVTEQDSKDSTYSLSSTLTLSKADYEKHKVYACEVTHQGLSSPVTKSFNRGEC",~6,–
"5T4-F404C (antibody, human IgG1, kappa) heavy: not shown light: DIQMTQSPSSLSASVGDRVTITCKASQSVSNDVAWYQQKPGKAPKLLIYFATNRYTGVPSRFSGSGYGTDFTLTISSLQPEDFATYYCQQDYSSPWTFGQGTKVEIKRTVAAPSVFIFPPSDEQLKSGTASVVCLLNNFYPREAKVQWKVDNALQSGNSQESVTEQDSKDSTYSLSSTLTLSKADYEKHKVYACEVTHQGLSSPVTKSFNRGEC",–,binds
"5T4-V422C (antibody, human IgG1, kappa) heavy: not shown light: DIQMTQSPSSLSASVGDRVTITCKASQSVSNDVAWYQQKPGKAPKLLIYFATNRYTGVPSRFSGSGYGTDFTLTISSLQPEDFATYYCQQDYSSPWTFGQGTKVEIKRTVAAPSVFIFPPSDEQLKSGTASVVCLLNNFYPREAKVQWKVDNALQSGNSQESVTEQDSKDSTYSLSSTLTLSKADYEKHKVYACEVTHQGLSSPVTKSFNRGEC",~7,–
"5T4-L398C (antibody, human IgG1, kappa) heavy: not shown light: DIQMTQSPSSLSASVGDRVTITCKASQSVSNDVAWYQQKPGKAPKLLIYFATNRYTGVPSRFSGSGYGTDFTLTISSLQPEDFATYYCQQDYSSPWTFGQGTKVEIKRTVAAPSVFIFPPSDEQLKSGTASVVCLLNNFYPREAKVQWKVDNALQSGNSQESVTEQDSKDSTYSLSSTLTLSKADYEKHKVYACEVTHQGLSSPVTKSFNRGEC",~7,–
"5T4-T359C (antibody, human IgG1, kappa) heavy: not shown light: DIQMTQSPSSLSASVGDRVTITCKASQSVSNDVAWYQQKPGKAPKLLIYFATNRYTGVPSRFSGSGYGTDFTLTISSLQPEDFATYYCQQDYSSPWTFGQGTKVEIKRTVAAPSVFIFPPSDEQLKSGTASVVCLLNNFYPREAKVQWKVDNALQSGNSQESVTEQDSKDSTYSLSSTLTLSKADYEKHKVYACEVTHQGLSSPVTKSFNRGEC",~6,–
